PMC3115508

Assays:
[1] = target: T1, HUαβ (Escherichia coli, UniProt P0ACF0;P0ACF4 1-90;1-90); test: ITC
[2] = target: T1, HUαβ; test: ITC; remark: listed apart in the source

T1 sequence (P0ACF0 whole entry, chain 1 of 2): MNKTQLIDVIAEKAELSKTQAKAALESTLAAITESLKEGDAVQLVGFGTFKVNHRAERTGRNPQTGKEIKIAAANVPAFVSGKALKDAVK
T1 sequence (P0ACF4 whole entry, chain 2 of 2): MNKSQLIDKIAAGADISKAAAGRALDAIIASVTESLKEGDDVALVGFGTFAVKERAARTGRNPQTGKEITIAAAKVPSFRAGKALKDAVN

Row | Binder | binding signal [1] [k10/k6 ratio] | binding result [2]
1 | 15 bp DNA (dsDNA) DNA 1: CGGTCAGTTCAAGGC DNA 2: GCCTTGAACTGACCG | 2.8 ± 1 | –
2 | 38 bp DNA (dsDNA) DNA 1: CGGTCAGTTCAAGCCCTTCTAAGTTTGTAGACACCAGC DNA 2: GCTGGTGTCTACAAACTTAGAAGGGCTTGAACTGACCG | – | binds
